± gives the uncertainty stated by the source.
Experiment: self-splicing fitness, log relative to wild type (ln ratio); higher = more splicing; Tetrahymena group I intron in knt gene, E. coli kanamycin selection, DiMSum; sequences stand for … in CUCUCU…GGAGGGAAAAGUUAUCAGGCAUGCACCUGGUAGCUAGUCUUUAAACCAAUAGAUUGCAUCGGUUUAAAAGGCAAGACCGUCAAAUUGCGGGAAAGGGGUCAACAGCCGUUCAGUACCAAGUCUCAGGGGAAACUUUGAGAUGGCCUUGCAAAGGGUAUGGUAAUAAGCUGACGGACAUGGUCCUAACCACGCAGCCAAGUCCUAAGUCAACAGAUCUUCUGUUGAUAUGGAUGCAGUUCACAGACUAAAUGUCGGUCGGGGAAGAUGUAUUCUUCUCAUAAGAUAUAGUCGGACCUCUCCUUAAUGGGAGCUAGCGGAUGAAGUGAUGCAACACUGGAGCCGCUGGGAACUAAUUUGUAUGCGAAAGUAUAUUGAUUAGUUUUGGAGUACUCGUGGUCG
How it was run: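 A randomised library covering all eight P1ex-region intron nucleotides was built with the intron in the knt kanamycin-resistance gene on pET-22b(+) and held in E. coli BL21(DE3). Cells were grown overnight at 37°C or 30°C on LB agar, with or without 25 μg/mL kanamycin, plus 100 μg/mL carbenicillin, 50 μM IPTG and 0.2% rhamnose, and pooled colonies were amplicon-sequenced on an Illumina HiSeq 2500. DiMSum fitness is the error-weighted combination of wild-type-normalised replicate fold changes, kanamycin versus none.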

Question: For UGUAAGCAAUAUUACGACAG, which “self-splicing fitness (ln)” value (30 °C) is on record?
Answer: -1.29 ± 0.11

Question: What about the “self-splicing fitness (ln)” value (37 °C) of the same sequence?
Answer: -0.146 ± 0.13

Question: For UGUAAGCAAUAUUACGACGU, which “self-splicing fitness (ln)” value (30 °C) is on record?
Answer: -1.29 ± 0.11

Question: And the “self-splicing fitness (ln)” value (37 °C)?
Answer: -0.138 ± 0.13

Question: Which results are given for UGUAAGCAAUAUUACGAGUA?
Answer: self-splicing fitness (ln) (30 °C): -1.48 ± 0.11; self-splicing fitness (ln) (37 °C): -0.65 ± 0.12

Question: With UGUAAGCAAUAUUACGAGUG as the sequence, how does the “self-splicing fitness (ln)” value (30 °C) read?
Answer: -2.02 ± 0.13

Question: And the “self-splicing fitness (ln)” value (37 °C)?
Answer: -0.484 ± 0.14

Question: With UGUAAGCAAUAUUACGAUGG as the sequence, how does the “self-splicing fitness (ln)” value (30 °C) read?
Answer: -2.9 ± 0.13

Question: What about the “self-splicing fitness (ln)” value (37 °C) of the same sequence?
Answer: -0.756 ± 0.12

Question: Which results are given for UGUAAGCAAUAUUACGCAAA?
Answer: self-splicing fitness (ln) (30 °C): -2.11 ± 0.16; self-splicing fitness (ln) (37 °C): -0.927 ± 0.13

Question: For UGUAAGCAAUAUUACGCGGC, which “self-splicing fitness (ln)” value (37 °C) is on record?
Answer: -1.13 ± 0.27

Question: For UGUAAGCAAUAUUACGCGGU, which “self-splicing fitness (ln)” value (30 °C) is on record?
Answer: -3.22 ± 0.21

Question: And the “self-splicing fitness (ln)” value (37 °C)?
Answer: -2.15 ± 0.29

Question: With UGUAAGCAAUAUUACGGACC as the sequence, how does the “self-splicing fitness (ln)” value (30 °C) read?
Answer: -1.18 ± 0.18

Question: What about the “self-splicing fitness (ln)” value (37 °C) of the same sequence?
Answer: -0.408 ± 0.18

Question: Which results are given for UGUAAGCAAUAUUACGGGUA?
Answer: self-splicing fitness (ln) (30 °C): -1.61 ± 0.22; self-splicing fitness (ln) (37 °C): -0.187 ± 0.16

Question: For UGUAAGCAAUAUUACGGUCC, which “self-splicing fitness (ln)” value (30 °C) is on record?
Answer: -2.16 ± 0.14

Question: And the “self-splicing fitness (ln)” value (37 °C)?
Answer: -1.29 ± 0.14

Question: What does the source list for UGUAAGCAAUAUUACGGUUU?
Answer: self-splicing fitness (ln) (30 °C): -2.96 ± 0.16; self-splicing fitness (ln) (37 °C): -1.68 ± 0.18

Question: For UGUAAGCAAUAUUACGUACG, which “self-splicing fitness (ln)” value (30 °C) is on record?
Answer: -0.346 ± 0.057

Question: And the “self-splicing fitness (ln)” value (37 °C)?
Answer: -0.333 ± 0.067

Question: With UGUAAGCAAUAUUACGUAGU as the sequence, how does the “self-splicing fitness (ln)” value (30 °C) read?
Answer: -3.01 ± 0.21

Question: And the “self-splicing fitness (ln)” value (37 °C)?
Answer: -0.923 ± 0.18

Question: Which results are given for UGUAAGCAAUAUUACGUAUG?
Answer: self-splicing fitness (ln) (30 °C): -1.11 ± 0.093; self-splicing fitness (ln) (37 °C): -0.727 ± 0.12

Question: With UGUCAGCAAUAUUACGAAAC as the sequence, how does the “self-splicing fitness (ln)” value (37 °C) read?
Answer: -0.978 ± 0.25

Question: With UGUCAGCAAUAUUACGAAGA as the sequence, how does the “self-splicing fitness (ln)” value (30 °C) read?
Answer: -0.706 ± 0.11

Question: What about the “self-splicing fitness (ln)” value (37 °C) of the same sequence?
Answer: -0.132 ± 0.11

Question: Which results are given for UGUCAGCAAUAUUACGACAA?
Answer: self-splicing fitness (ln) (30 °C): -1.02 ± 0.097; self-splicing fitness (ln) (37 °C): -0.118 ± 0.1

Question: Which “self-splicing fitness (ln)” value (30 °C) does the source give for UGUCAGCAAUAUUACGACCG here?
Answer: -0.0146 ± 0.18

Question: And the “self-splicing fitness (ln)” value (37 °C)?
Answer: 0.122 ± 0.25

Question: Which “self-splicing fitness (ln)” value (30 °C) does the source give for UGUCAGCAAUAUUACGAGGA here?
Answer: -2.46 ± 0.22

Question: What about the “self-splicing fitness (ln)” value (37 °C) of the same sequence?
Answer: -0.886 ± 0.15

Question: With UGUCAGCAAUAUUACGAGGG as the sequence, how does the “self-splicing fitness (ln)” value (30 °C) read?
Answer: -3.72 ± 0.2

Question: What about the “self-splicing fitness (ln)” value (37 °C) of the same sequence?
Answer: -1.37 ± 0.14

Question: With UGUCAGCAAUAUUACGAGUG as the sequence, how does the “self-splicing fitness (ln)” value (30 °C) read?
Answer: -1.07 ± 0.085

Question: And the “self-splicing fitness (ln)” value (37 °C)?
Answer: -0.261 ± 0.094

Question: For UGUCAGCAAUAUUACGAUUC, which “self-splicing fitness (ln)” value (30 °C) is on record?
Answer: -1.84 ± 0.11

Question: And the “self-splicing fitness (ln)” value (37 °C)?
Answer: -0.335 ± 0.13

Question: With UGUCAGCAAUAUUACGCAAC as the sequence, how does the “self-splicing fitness (ln)” value (30 °C) read?
Answer: -2.59 ± 0.33

Question: And the “self-splicing fitness (ln)” value (37 °C)?
Answer: -1.26 ± 0.28

Question: Which “self-splicing fitness (ln)” value (30 °C) does the source give for UGUCAGCAAUAUUACGCACG here?
Answer: -1.06 ± 0.12

Question: What about the “self-splicing fitness (ln)” value (37 °C) of the same sequence?
Answer: -0.829 ± 0.13

Question: With UGUCAGCAAUAUUACGCCAA as the sequence, how does the “self-splicing fitness (ln)” value (30 °C) read?
Answer: -0.858 ± 0.13

Question: What about the “self-splicing fitness (ln)” value (37 °C) of the same sequence?
Answer: -0.585 ± 0.13

Question: For UGUCAGCAAUAUUACGGAAA, which “self-splicing fitness (ln)” value (30 °C) is on record?
Answer: -1.11 ± 0.088

Question: What about the “self-splicing fitness (ln)” value (37 °C) of the same sequence?
Answer: -0.145 ± 0.086

Question: Which “self-splicing fitness (ln)” value (30 °C) does the source give for UGUCAGCAAUAUUACGGAAG here?
Answer: -2.37 ± 0.14

Question: And the “self-splicing fitness (ln)” value (37 °C)?
Answer: -0.569 ± 0.15

Question: For UGUCAGCAAUAUUACGGCUU, which “self-splicing fitness (ln)” value (30 °C) is on record?
Answer: -0.428 ± 0.12

Question: What about the “self-splicing fitness (ln)” value (37 °C) of the same sequence?
Answer: -0.319 ± 0.17

Question: What does the source list for UGUCAGCAAUAUUACGGGGU?
Answer: self-splicing fitness (ln) (30 °C): -2.91 ± 0.18; self-splicing fitness (ln) (37 °C): -2.49 ± 0.23

Question: For UGUCAGCAAUAUUACGGUGC, which “self-splicing fitness (ln)” value (30 °C) is on record?
Answer: -3.51 ± 0.43

Question: And the “self-splicing fitness (ln)” value (37 °C)?
Answer: -2.74 ± 0.38

Question: Which “self-splicing fitness (ln)” value (30 °C) does the source give for UGUCAGCAAUAUUACGUAGA here?
Answer: -0.492 ± 0.057

Question: And the “self-splicing fitness (ln)” value (37 °C)?
Answer: -0.604 ± 0.081

Question: For UGUCAGCAAUAUUACGUCGC, which “self-splicing fitness (ln)” value (30 °C) is on record?
Answer: -1.14 ± 0.25

Question: With UGUCAGCAAUAUUACGUGUC as the sequence, how does the “self-splicing fitness (ln)” value (37 °C) read?
Answer: -2.37 ± 0.21

Question: What does the source list for UGUCAGCAAUAUUACGUUCA?
Answer: self-splicing fitness (ln) (30 °C): -0.292 ± 0.1; self-splicing fitness (ln) (37 °C): -0.052 ± 0.14

Question: What does the source list for UGUGAGCAAUAUUACGAAAA?
Answer: self-splicing fitness (ln) (30 °C): -1.47 ± 0.35; self-splicing fitness (ln) (37 °C): -1.31 ± 0.46

Question: What does the source list for UGUGAGCAAUAUUACGAACG?
Answer: self-splicing fitness (ln) (30 °C): -0.83 ± 0.075; self-splicing fitness (ln) (37 °C): 0.261 ± 0.086

Question: Which “self-splicing fitness (ln)” value (30 °C) does the source give for UGUGAGCAAUAUUACGAAGA here?
Answer: -2.48 ± 0.37

Question: Which “self-splicing fitness (ln)” value (30 °C) does the source give for UGUGAGCAAUAUUACGAAGC here?
Answer: -2.81 ± 0.34

Question: What about the “self-splicing fitness (ln)” value (37 °C) of the same sequence?
Answer: -2.08 ± 0.47

Question: Which results are given for UGUGAGCAAUAUUACGAUAU?
Answer: self-splicing fitness (ln) (30 °C): -2.31 ± 0.22; self-splicing fitness (ln) (37 °C): -1.66 ± 0.37

Question: For UGUGAGCAAUAUUACGAUGA, which “self-splicing fitness (ln)” value (30 °C) is on record?
Answer: -2.75 ± 0.17

Question: And the “self-splicing fitness (ln)” value (37 °C)?
Answer: -2.21 ± 0.17

Question: Which “self-splicing fitness (ln)” value (30 °C) does the source give for UGUGAGCAAUAUUACGAUUA here?
Answer: -1.17 ± 0.22

Question: What about the “self-splicing fitness (ln)” value (37 °C) of the same sequence?
Answer: -1.53 ± 0.2

Question: For UGUGAGCAAUAUUACGCAGU, which “self-splicing fitness (ln)” value (37 °C) is on record?
Answer: -1.74 ± 0.26

Question: Which “self-splicing fitness (ln)” value (37 °C) does the source give for UGUGAGCAAUAUUACGCCGU here?
Answer: -1.71 ± 0.47

Question: With UGUGAGCAAUAUUACGCGCA as the sequence, how does the “self-splicing fitness (ln)” value (30 °C) read?
Answer: -1.34 ± 0.44

Question: And the “self-splicing fitness (ln)” value (37 °C)?
Answer: -0.203 ± 0.48

Question: What does the source list for UGUGAGCAAUAUUACGCGGU?
Answer: self-splicing fitness (ln) (30 °C): -3.67 ± 0.37; self-splicing fitness (ln) (37 °C): -0.807 ± 0.33

Question: With UGUGAGCAAUAUUACGCUUC as the sequence, how does the “self-splicing fitness (ln)” value (30 °C) read?
Answer: -2.97 ± 0.39

Question: What does the source list for UGUGAGCAAUAUUACGGACG?
Answer: self-splicing fitness (ln) (30 °C): -0.792 ± 0.12; self-splicing fitness (ln) (37 °C): -0.0879 ± 0.18

Question: For UGUGAGCAAUAUUACGGUAU, which “self-splicing fitness (ln)” value (30 °C) is on record?
Answer: -3.87 ± 0.34

Question: For UGUGAGCAAUAUUACGUAAC, which “self-splicing fitness (ln)” value (30 °C) is on record?
Answer: -3.16 ± 0.28

Question: What about the “self-splicing fitness (ln)” value (37 °C) of the same sequence?
Answer: -2.25 ± 0.38

From the supplement of paper PMC7877785
